# Experiment: label from the status in PepcDB records
row,Sequence,protein production
1,MSLGRKQQYGTLASIAAKLGISRTTVSNAYNRPEQLSAELRQRILDTAEDMGYLGPDPVARSLRTRRAGAIGVLLTEDLTYAFEDMASVDFLAGVAQAAGDTQLTLIPASPASSVDHVSAQQLVNNAAVDGVVIYSVAKGDPHIDAIRARGLPAVIADQPAREEGMPFIAPNNRKAIAPAAQALIDAGHRKIGILSIRLDRANNDGEVTRERLENAQYQVQRDRVRGAMEVFIEAGIDPGTVPIMECWINNRQHNFEVAKELLETHPDLTAVLCTVDALAFGVLEYLKSVGKSAPADLSLTGFDGTHMALARDLTTVIQPNKLKGFKAGETLLKMIDKEYVEPEVELETSFHPGSTVAEGHHHHHH,not failed
2,MSLHPHAMPDMGPDMNKVPWMGDEQIAMLVYPGMTVMDLVGPHCMFGSLMGAKIYIVAKSLDPVTSDAGLAIVPTATFGTCPRDLTVLFAPGGTDGTLAAASDAETLAFMADRGARAKYITSVCSGSLILGAAGLLKGYKATSHWSCRDALAGFGAIPTEARVVRDRNRITGAGVTAGLDFGLSMVAELRDQTYAECAQLMSEYDPDPPFNAGSMKTAPAHVRTAMIELVAEFTKKADALAGFPKEGHHHHHH,not failed
3,MSLHPNIQAVTDRIRKRSAPSRAAYLAGLDAALREGPFRSRLSCGNLAHGFAASEPGDKSRLRGAATPNLGIITAYNDMLSAHQPFEHYPQLIRETARTLGATAQVAGGVPAMCDGVTQGRAGMELSLFSRDNIAQATAIGLSHDMFDSVVYLGVCDKIVPGLLIGALAFGHLPAIFMPAGPMTPGIPNKQKAEVRERYAAGEATRAELLEAEASSYHSPGTCTFYGTANSNQVLLEAMGVQLPGASFVNPELPLRDALTREGTARALAISALGEDFRPFGRLIDERAIVNAVVALMATGGSTNHTIHWIAVARAAGIVLTWDDMDLISQTVPLLTRIYPNGEADVNRFQAAGGTAFVFRELMDAGYMHDDLPTVVEGGMRAYINEPRLQDGKVTYVPGTATTADDSVARPVGDAFESQGGLRLLRGNLGRSLIKLSAVKPQHRSIQAPAVVIDTPQVLNKLHAAGVLPHDFVVVLRYQGPRANGMPELHSMAPLLGLLQNQGRRVALVTDGRLSGASGKFPAAIHLTPEAARGGPIGRVREGDIVRLDGEAGTLEVLVSAEEWASREVAPNTSVAGNDLGRNLFAINRQVVGPADQGAISISCGPTHPDGALWSYDAEYELGADAAAAAAPHESKDA,failed
4,MSLIEIRKRTLIVETTYHENGPAPAQPLKLAASCAVIRNPYAGRYEPDLMPFMAELRSLGTLLATELVDTLGKDNIEVYSKAAIVGVDGEMEHGAVWHEAGGWAMRSVLGEPKAMVPAVKAVATAGYRMMVPVHYIHASYVRSHFNSIEIGIQDAPRPREILFALVMGTGARVHARLGGLTKEAVSVHDGQR,not failed
5,MSLIERVRTDLYRIPLPTRLTDSTHGAMMDFELITVRIEDSDGATGLGYTYTVNHGGAAVATMVDKDLRGCLLGADAEQIEKIWQSMWWRLHYAGRGGHATSAISAVDIALWDLKGIRARTPLWKLFGGYDPVVPVYAGGIDLELPVADLKTQADRFLAGGFRAIKMKVGRPDLKEDVDRVSALREHLGDSFPLMVDANMKWTVDGAIRAARALAPFDLHWIEEPTIPDDLVGNARIVRESGHTIAGGENLHTLYDFHNAVRAGSLTLPEPDVSNIGGYTTFRKVAALAEANNMLLTSHGVHDLTVHALASVPHRTYMEAHGFGLHAYMAEPMAVTDGCVSAPDRPGHGVVLDFERLGRLAVGEGHHHHHH,not failed
6,MSLIFTAIVVFLFILAIFDLIVGVSNDAVNFLNSAIGAKAAPFKIIVGVAALGVFCGAAMNNGMMEIARHGIFRPEHYTFSELMVVFLSVVITDVVLMDMFNSLGMPTSTTVSLIFELLGGSFFMAMTKVGGTVGFQDLLNTEKALSVILGIFLSVGIAFFFGMVVQYLSRLLFTFNYRRNLRWLAGLFGGVAVTSIIYFMLIKGLKGVSFMTEESTAWIAANTGRLVLYCLVVSIILMQVLYWLRVNVFKVIVLLGTFALAMAFAGNDLVNFIGVPLAGYSSYLDFNANGNGQYDTYLMGALNEPASTPVYFLVAAGIVMVYALITSKKAHNVIKTSVDLARQEEGEEMFGSSGLARSIVRFSTTTANAVSRIIPRPVGRWIDSRFNQDELIMAKGAAFDLVRASVNLVLAGLLIAFGTSLRLPLSTTYVAFMVAMGTSLADRAWSRESAVFRITGVFSVIGGWFITAGAAFILCFLVTMVNHFGGYPAMAGMIILAIFLLVRSHIRFDKKKKSETKDTVFIDMMASHDKEEIWQLLAKHIRQKQLALLDFAENNYMQMTDGFINEDLKRLRRSINDQNAERQMLKVNRRKETLGIRRIEEAKSVVKNTWFHLGCNSCEQIVFCLKRIAEPCKEHVDNNFNPLPKVCVSEFLAAREKLILYIKEAKLIVSNETDEILDPMTYRGKDIKKELKQLRKTQLSRIQQGASSLKISLVYLNLLQESQQLVNILDDLIHATEKLFDPVARIGTDEEFFN,failed
7,MSLILESLVTTLDEQGRINLAPLGPIVLPPQSPGGLPQFLLRPYEGSTTCDNLLASGNAVIHVIDDALLIAKTAIGKVDASDLVVPIPGLEDTHVRLKRCHRWFAVRVTQRAGTPPRHELTARCLASGLVDPFFGFNRAKHAVIEAAVAATRLHLLPPEEIEEELERARIAIEKTGGEPEREALQLIRRHVRESSISEGHHHHHH,not failed
8,MSLINARLIAFEDQWVPALNAPLKQAILADSQDAQLAAAMTYSVLAGGKRLRPLLTVATMQSLGVTFVPERHWRPVMALELLHTYSLIHDDLPAMDNDALRRGEPTNHVKFGAGMATLAGDGLLTLAFQWLTATDLPATMQAALVQALATAAGPSGMVAGQAKDIQSEHVNLPLSQLRVLHKEKTGALLHYAVQAGLILGQAPEAQWPAYLQFADAFGLAFQIYDDILDVVSSPAEMGKATQKDADEAKNTYPGKLGLIGANQALIDTIHSGQAALQGLPTSTQRDDLAAFFSYFDTERVNEGHHHHHH,not failed
9,MSLIPKFRAWDTYEKEMLENVTPLFDDSNSMIAIITDFQIKGSPGTSEIEIGSYDTTFNWDEFPYVIMQSTGLKDKNGVEIFEGDILVYDAPKKYAHRRSMHEIAYADGRFFWEFLDLVFCQSNILYRDGYLVIGNIHENPELLEGNEGHHHHHH,not failed
10,MSLIPKVSVIVPIYNVEKYLDQCVQALLAQTLSDIEIILIDDESPDNCPKICDDYAAQYPNIKVIHKKNAGLGMACNSGLDVATGEYVAFCDSDDYVDSDMYMTMYNVAQKYTCDAVFTGLKRITMAGIPTGTVTHQKEFKLYKNKNEIHTLLKDLIASDPYAREERAIQVSAKVVLYRRNLIEKKHLRFVSERILPSEDLIFNVDVLANSNIVCVLPQTFYNYRTNPISISEGHHHHHH,not failed
11,MSLKEFKIGWFATILGTGGVAIASLPYFPVLSVVLTYLLTAIFVILTAVWLAKIIRYPRVVAAELGHFVMGNFYPLQPISAVILAILYRKLGIPLDLPLLAYGAGLILVLTVYLSYHFFANVKAEIHHIHGGWFIPPVSTILVTDALLQYSPNETFFVTSLIYFGIGLMLFLFISTILFLRLVNHELPVFELAPTNFILLAPIGILIVDFTLIAKHAEAIFSANLVPLALIASISLWGFGLWALAVNILLLLRYLRQEMPFFLGWWSYVFPTAAYTLSTIALSHFVPVFSYAATALYAFLIAAWAIIGVRTVGIAIRGA,failed
12,MSLKFFLKAYARIAAIAAAVVLVCVLLFNGINSVREQYWHEQAMTPVMRWLAAAPDPLSQYHWMAPMFGLHSGVAADFGLSQVALERLGYGQVVAQSTDSGYGYYVLGLGGEVLGIHLEQPYRDLARAISLMVRWHLDTSPAAQRADVAQQLAESLNLDIRLVQKTEDLPDQQALERLGDTGLAIFEHGDNRARALVRLSEGALVVVTLPPPFNPWGWPIILLLTAVVGGVLAVALFLALRFVESHLRKVESVAIRIARGEMGARVESEQGTLVSRLGTSFNGMAEHIQRLVQVQREMIHAVSHELRTPVARIRFGVQMIESGSTQEVLEKQLEGIDGDIQELDELIDEILTYARLEQGGPVFSLREGSVTDIVRQVVSEQRLIREGVDIECQIDEASERWAQADMEPRYIHRAIQNLVGNAARYAAGRVQVSCHLDEDNCRIDVEDDGPGIPEQDWEKVFTAFARLDDSRTRTSGGYGLGLSIVRRILYWHGGQAFVGRSDVLGGARFSLVWPRLKPADPDL,failed
13,MSLKIKHEHIRMAMNAWAHPDGEKVPAAEITRAYFELGMTFPELYDDSHPEALARNTQKIFRWVEKDTPDAVEKIQALLPAIEKSMPPLLVARMRSHSSAYFRELVETRERLVRDADDFVAVAIAGFNQMNRGGPAGNIVAVHEGHHHHHH,not failed
14,MSLKIKNILLSGGSGKRLWPLSRSLYPKQFLKLFDHKSLFELSFKRNASLVDETLIVCNEKHYFLALEEIKNEIKNKSVGFLLESLSKNTANAIALSALMSDKEDLLIVTPSDHLIKDLQAYENAIKKAIDLAQKGFLVTFGVSIDKPNTEFGYIESPNGLDVKRFIEKPSLDKAIEFQKSGGFYFNSGMFVFQAGVFLDELKKHAPTILKGCERAFESLENAYFFEKKIARLSEKSMQDLEDMSIDIALMQQSHKIKMVELNAKWSDLGNFNALFEEAANEPKENVSLNQTPVFAKESEEGHHHHHH,not failed
15,MSLKKINTVLAAAFILFILWFGAEFILSPETTAPGFGLPSWPSGDGDGFLIIKGIRDVVLALVLGILLVTGHRRALGWALLVEALAAYGDMTAVLAHHGSVATALGVHCLTATLMVVNGLLIMRETRKVAAAPATPAPQPA,failed
16,MSLKRRQTNIIGVYLADYGGSFYGELLEGIKKGLALFDYEMIVCSGKKSHLFIPEKMVDGAIILDWTFPTKEIEKFAERGHSIVVLDRTTEHRNIRQVLLDNRGGATQAIEQFVNVGSKKVLLLSGPEKGYDSQERLAVSTRELTRFGIPYEIIQGDFTEPSGYAAAKKILSQPQTEPVDVFAFNDEMAIGVYKYVAETNYQMGKDIRIIGFDNSELGAFVQPRLATIAYSKHRWGMVAAEKIIHLMRGEAAESEHIYTRFIEGESFPSEGHHHHHH,not failed
17,MSLKSIEVVAAVIRLGEKYLCVQRGQTKFSYTSFRYEFPGGKVEEGESLQEALQREIMEEMDYVIEVGEKLLTVHHTYPDFEITMHAFLCHPVGQRYVLKEHIAAQWLSTREMAILDWAEADKPIVRKISEQEGHHHHHH,not failed
18,MSLKVPGALPLLFLAACSHLPAKTPLTAEKPAEKKESEQSRVPSQDLTPSMLFDFLLAETALQRGDTEIGLRTYLKLAKNTQDPRVAQRATEAALQARQPAFALEAAKIWTELDPESIPARQMMAALLVHFDRLDEARPHLEKLLAVAGDKIDDAFMQLNSLLVRSPNKNAIFELVKQLAQPYPDLPEAHFAESQAAWFAERFDIALEEMKKALALRPEWEMAAIYEGRILSRESNARAIEFFDDYLKRYPKANDTRITYARLLLAERDYSKAREQFQKLLTENPDNPDVAIAVGLLSLELQNYDVAESNFKRALELGYRDPGMVRFYLGGISEKKQQIPQALNWYRSVTEGTQFIPAQIKYAILLSRTGKTKEGLHHLQQLPVANDQQRAQVIIAEAQLLRESGAYKKAFQLLSSSLEKLPDSPELLYDRALAAEKIGKADIMEQDLRKLIELRPDHAHAYNALGYGIAEHSSKRLPEALELIEKAIKLSPIDPYIIDSLGWVHYRMGDINQGLSYLRQAFAMNPDPEIAAHLGEVLWVQGMKDEAKEIWQTALKNHPGNEALIGVMKKFMK,failed
19,MSLKVVIGYLALDDWEFESLFPTIEWKYLTHINASFARVKADGTLNINPVRKRIESVRETAHKHNVKILISLAKNSPGEFTTAINDPKARKELIQQIIAFTKEYKLDGFDIDYEEYDNWDKNFPSLLVFARGLYLAKEKNMLMTCAVNSRWLNYGTEWEQYFDYINLMSYDRGAFTDKPVQHASYDDFVKDLKYWNEQCRASKSKIVGGLPFYGYSWEESLQGAVDDVRGIRYSGILKHLGNEAADKDNIGKTYYNGRPTIANKCKFIKENDYAGVMIWQLFQDAHNDNYDLKLINVVGREMMEEGHHHHHH,not failed

# — a protein production outcome set (Wang et al. 2014)
